Measured values: the DeepSol protein solubility set

assay: soluble on expression in E. coli; label from the status in PepcDB or PDB records

Sequence	soluble on expression in E. coli
DPDQFRAIIESPEGAGHVGYQYRRNTGSTMRMVSDVLDERVSLWDFHCDPSGNVIQPGPNVDSRQYLQAAIDYVSSNGGGTITIPAGYTWYLGSYGVGGIAGHSGIIQLRSNVNLNIEGRIHLSPFFDLKPFQVFVGFDNGDPASSGNLENCHIYGHGVVDFGGYEFGASSQLRNGVAFGRSYNCSVTGITFQNGDVTWAITLGWNGYGSNCYVRKCRFINLVNSSVNADHSTVYVNCPYSGVESCYFSMSSSFARNIACSVELHQHDTFYRGSTVNGYCRGAYVVMHAAEAAGAGSYAYNMQVENNIAVIYGQFVILGSDVTATVSGHLNDVIVSGNIVSIGERAAFSAPFGAFIDIGPDNSGASNVQDIQRVLVTGNSFYAPANITDSAAITLRANLNGCTFIANNFDCRYMVYNAPGTTSPVVQNLVWDKSNVIGGTHANQRAGQNLFDMQFASVVNSTIEVQLSCEDLSMFSCILFPASCQLSYSKITVDSAWTKSMSNTAVFEGNQQAGANVYVSYPATVNLTSYNTQGAVPFFSTDTNYAWVTSAYSLSINENLDFSPPATYTNKANGQLVGVGYNEIGGVRSVSVRLMLQRQV	soluble
MNHMKKNILFDGLRSVARIGETAFVAARAGIKYATEKPSNAKLMRETFESLGSTYIKLGQFIASTPSLFPREYVEEFQGCLDQTPTLPFSYIQEVLAEEFEGRDLNQIFASIDETPLASASIAQVHAARLTTGEDVVIKVQKPGVETILYTDLNVVHWATKMLEKAIPKVKFASLSEIVEEIKIRMVREVDFIEEAQNLDDFVEYLKITNNQAATAPKVYHQFSTRRILTMERLYGVSLTDFDIVKKFAKDPSQVLITAMNTWFGSLMLCKSFHADLHAGNLMLLEDGRIGFIDFGIVGQLNPQVWTACLAFMDALQKTDYTAMAENMLKMGMTKTQIDTQVLAQDLERLFSGVLLADPQEILASKPSDLNDIMLDMVAVGERHGIKFPRDFALLFKQMLYFDRFMRVLAPYTDIYADQRLKMVQTIEPQSLLKHLEHHHHHH	soluble
MKKLLSSDRIKAEALRLGFSACGLAPAEAVDETVATAFRQWLADGCQAEMAYMQNYEDKRLDPRLLVEGARTVISVALNYYPAKKLPEGEYQIAWYAYGKDYHDVMKRKLKELFEFIEKEVSFSEETDSTIASTNNIGTYTENYASAPQAPVSQTSASPLQGRIFCDTAPILERYWAWRTGLGWIGKNTHLIIPHAGSCFFLGEIILDREADNYDSPQRNQCGSCTRCLDACPTKALEAPFRLNSERCLSYLTIEYRGELSLNTGKKMGNKIYGCDECLKACPWNRFATPCRTAEFQPSPSLLSMKKDDWHSLSEEQYKTIFKGSAVKRAKYSGLMRNIKIIK	not soluble
MGSDKIHHHHHHMTKSLITGANGFVGSAVTRCLLEAGHEVRCLVRPGSDRRNLDKLPVEISEGDLRSASSLKRAVAGCDNLFHVAADYRLWVPNPDTMYEINVKGTRALVLAAAEAGMKRMVYTSSVATLGTAENGVPADEDTPSSLGSMCGHYKRSKFMAEEIVQQMTREHDLPMVIVNPSTPIGPRDIKPTPTGRLVVDTLRNRMPAYVNTGLNIVHADDIAEGHLLAYKHGKPGERYILGGENMTLLQILQKIDEIRGRRIRRLGLPVKLMVPAAWLMEKMSTVTKVEPRATVDSVSMAKKKMFYSSDKAVRELGYRYRPAAAALEDAMNWFQANGYCG	not soluble
YANRESLIKRYTLKVLEQIAWLPEAQSLDEAKVQEALEDASQTIDSYLGGRYVLPLKTVPAVLERHCCYIARYFLEKNRATDQARQDYEDTIRFLEKVASGAISLGLSDDDETVESENGAMMESAGSVWGRNT	not soluble
MLPKANRIPYAMTVHGDTRIDNYYWLRDDTRSQPEVLDYLHQENEYGRKVMTSQQALQDRILKEIIDRIPPREVSAPYVKNGYRYRYIYEPGCEYAIYQRQSALSEEWDVWETLLDANQRAAHSEFYTLGGLAITPDNTIMALAEDYLSRRQYGLRFRNLESGNWYPELLDNVAPEFVWANDSLTLYYVRKHKKTLLPYQVWRHTIGTPSSQDELVYEEKDDTFYVSLHKTTSQHYVVIHLASATTSEVLLLDAELADAEPFSFLPRRKDHEYSLDHYQHKFYLRSNRNGKNFGLYRTRVRNENAWEELIPPREHIMLEGFTLFTDWLVVEERQRGLTSLRQINRKTREVIGIAFDDPAYVTWLAYNPEPETSRLRYGYSSMTTPDTLFELDMDTGERRVLKQTEVPGFDSGCYQSEHLWITARDGVEVPVSLVYHQKYFRKGQNPLLVYGYGSYGSSIDADFSSSRLSLLDRGFVYAIVHVRGGGELGQQWYEDGKFLKKRNTFNDYLDACDALLKLGYGSPSLCYGMGGSAGGMLMGVAINERPELFHGVIAQVPFVDVLTTMLDESIPLTTGEFEEWGNPQDIEYYDYMKSYSPYDNVKAQDYPHLLVTTGLHDSQVQYWEPAKWVAKLRELKTDQRLLLLCTDMDSGHGGKSGRFKSYEGVALEFAFLIGLAQGTLHSA	not soluble
